Test results published in article PMC314469, “Protein Interaction Networks by Proteome Peptide Scanning” (PLoS Biology, 2004).

T1: amphyphisin SH3 (AMPH_HUMAN), P49418
T1 chain: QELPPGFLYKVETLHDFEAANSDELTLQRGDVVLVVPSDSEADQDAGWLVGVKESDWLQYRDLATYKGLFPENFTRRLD


Tests used:
[1] = target: T1, amphyphisin SH3 (AMPH_HUMAN), P49418; assay: SPOT array
[2] = target: endophilin SH3 (SH3G2_HUMAN), Q99962; assay: SPOT array

| Binder | normalised SPOT signal, Boehringer light units (BLU); mean over the file's lines of this peptide [1] | normalised SPOT signal, Boehringer light units (BLU); mean over the file's lines of this peptide [2] |
| --- | --- | --- |
| SVIKPPRPDRGWFV [Q9BY07 808-821] | 1520 | 4940 |
| SVSFIGRPWRVVDG [Q12789 1979-1992] | 112 | 78.1 |
| SEEHPRRPDHGRRG [Q9NUN8 9-22] | 17.2 | 55.3 |
| STSFPRRPLAVEGG [O00124 234-247] | 53 | 132 |
| SSVRPPRPKKEPQT [Q9H875 7-20] | 2350 | 1060 |
| SVIKPTRPDRGWFV [Q9HBU5 808-821] | 4960 | 3200 |
| TAKKIKRPKFTVPQ [Q9UDN0 30-43] | 42.6 | 15.1 |
| SSSAPRRPSSLQSL [P39880 1446-1459] | 37.2 | 1050 |
| AAVPPPRPPIPEER [Q16099 865-879] | 419 | 4290 |
| SYTRIKRPQDQLRF [P55055 405-418] | 38.5 | 128 |
| SVIPPDRPPGASAG [O43147 533-547] | 53.4 | 72.8 |
| SWQILARPWRAFFK [Q9H6E1 737-750] | 1030 | 73.5 |
| TASPPARPPAQVGL [Q9NT59 32-46] | 34.4 | 365 |
| SVEPPKRPTSRLIM [Q9UMX9 24-37] | 36 | 480 |
| SVVGIRRPFQIPPG [Q9NPJ5 421-434] | 33.8 | 127 |
| TAGPPKRPGRPPKN [P55201 901-914] | 5130 | 93.8 |
| SSVALKRPPPAPPV [P78325 741-754] | 24.3 | 21.2 |

Next, values leading:

| normalised SPOT signal, Boehringer light units (BLU); mean over the file's lines of this peptide [1] | normalised SPOT signal, Boehringer light units (BLU); mean over the file's lines of this peptide [2] | Binder |
| --- | --- | --- |
| 3700 | 2770 | SWERPRRPNGDIVG [P16144 1660-1673] |
| 16.7 | 133 | SVNHIKRPHSVPSS [O75179 569-582] |
| 18.6 | 89.6 | SSYTFKRPVTRITP [Q8WWY6 31-44] |
| 56.1 | 27.3 | SSTLPQKPPYSFID [Q9H0N0 213-227] |
| 117 | 54.6 | SDKAFSRPDKLRLH [Q9NQV6 563-576] |
| 77.5 | 1350 | SSTNPFRPQKVSSF [P30670 54-67] |
| 85.5 | 102 | SVSRPERPPESAAL [Q9Y256 12-26] |
| 780 | 2240 | SYRRLDRPTRIRFS [Q9H2X0 201-214] |
| 12.2 | 179 | SWPLLERPWKAFLN [Q9H6E9 501-514] |
| 42 | 5.6 | STQSLKRPGTSQAG [O94820 555-568] |
| 61.4 | 1850 | STAGPLRPPPPGAG [Q9Y6T1 410-424] |
| 38.9 | 67.2 | SVSGPKRPQDRVAV [P48200 444-457] |
| 35.9 | 96.5 | SVTDIRRPRLYLLQ [Q9NYY3 591-604] |
| 3520 | 1300 | SDTSPRRPLRPTPN [Q16456 13-26] |
